Patent publication US20180185504A1 (Regeneron, published 2018)

T1: hPRLR.mmh (soluble monomeric human PRLR) (human)
T1 construct: called soluble monomeric PRLR protein
T1 chain: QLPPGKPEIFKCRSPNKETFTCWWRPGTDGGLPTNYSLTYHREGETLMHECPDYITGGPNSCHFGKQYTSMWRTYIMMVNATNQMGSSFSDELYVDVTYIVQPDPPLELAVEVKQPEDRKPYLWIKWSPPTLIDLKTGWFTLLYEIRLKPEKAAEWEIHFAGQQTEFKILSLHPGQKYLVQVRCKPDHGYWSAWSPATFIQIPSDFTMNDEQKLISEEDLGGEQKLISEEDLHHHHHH

T2: macaca fascicularis (mf) PRLR.mmh (soluble monomeric monkey PRLR) (Macaca fascicularis)
T2 construct: called soluble monomeric PRLR protein
T2 chain: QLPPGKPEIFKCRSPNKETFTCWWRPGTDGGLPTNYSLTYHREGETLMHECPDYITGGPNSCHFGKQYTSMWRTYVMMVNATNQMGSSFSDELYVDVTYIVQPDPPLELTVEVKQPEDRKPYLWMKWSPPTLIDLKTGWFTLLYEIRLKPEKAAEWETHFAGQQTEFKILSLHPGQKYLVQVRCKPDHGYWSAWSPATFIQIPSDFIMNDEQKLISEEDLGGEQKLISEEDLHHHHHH

T3: hPRLR.mFc (soluble dimeric human PRLR) (human)
T3 construct: dimeric PRLR construct
T3 chain: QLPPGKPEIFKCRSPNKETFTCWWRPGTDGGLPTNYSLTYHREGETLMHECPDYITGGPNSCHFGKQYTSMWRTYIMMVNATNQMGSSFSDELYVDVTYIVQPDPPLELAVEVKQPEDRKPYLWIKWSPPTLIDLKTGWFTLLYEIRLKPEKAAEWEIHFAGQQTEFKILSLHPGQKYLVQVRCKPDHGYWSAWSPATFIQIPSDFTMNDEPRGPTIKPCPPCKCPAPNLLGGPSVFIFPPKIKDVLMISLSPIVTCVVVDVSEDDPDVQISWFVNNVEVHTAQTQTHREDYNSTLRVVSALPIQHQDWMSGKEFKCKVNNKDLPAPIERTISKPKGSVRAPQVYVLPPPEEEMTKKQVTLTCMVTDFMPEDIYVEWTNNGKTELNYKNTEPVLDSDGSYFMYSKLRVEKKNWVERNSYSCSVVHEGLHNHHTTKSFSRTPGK


How the values were obtained:
Test in all cases: SPR Biacore, 25 C, mAb capture
[1] = target: T1, hPRLR.mmh (soluble monomeric human PRLR)
Method: (§1) Measurements were conducted on a T200 Biacore instrument. Kinetic association (kₐ) and dissociation (kd) rate constants were determined by processing and fitting the data to a 1:1 binding model using Scrubber 2.0 curve fitting software.

[2] = target: T2, macaca fascicularis (mf) PRLR.mmh …
Method: as §1

[3] = target: T3, hPRLR.mFc (soluble dimeric human PRLR)
Method: as §1

Kd [1]	T½ [1]	koff [1]	kon [1]	Kd [2]	T½ [2]	koff [2]	kon [2]	Kd [3]	T½ [3]	koff [3]	kon [3]	Binder
0.49 nM	2.62 h	7.35e-05 s⁻¹	150000 M⁻¹ s⁻¹	1.14 nM	1.47 h	0.000131 s⁻¹	115000 M⁻¹ s⁻¹	0.0684 nM	9.8 h	1.97e-05 s⁻¹	287000 M⁻¹ s⁻¹	H1H6975N (antibody, human IgG1, V domains shown, Tested with human IgG1 Fc (H1H); also called H2M6975N) VH: EVHLVESGGGLVQPGGSLRLSCAASGFTFSSYEMNWVRQTPGKGLEWISHISSRSVIIYYADSVKGRFTISRDNAKNSLFLQMNSLRAEDTAVYFCAGITIFGIPEYWGQGTLVTVSS VL: EIVLTQSPATLSLSPGERATLSCRASQSVSSYFAWYQQKPGQAPRLLIYDASSRATGIPTRFSGSGSGTDFTLTISSLEPEDFAVYYCQQRSSWPITFGQGTRLEIK
0.259 nM	1.07 h	0.000179 s⁻¹	692000 M⁻¹ s⁻¹	0.511 nM	0.917 h	0.000208 s⁻¹	408000 M⁻¹ s⁻¹	0.0992 nM	2.98 h	6.45e-05 s⁻¹	651000 M⁻¹ s⁻¹	H1H6762P (antibody, human IgG1, V domains shown, Human IgG1 Fc (H1H)) VH: QVQLVESGGGVVQPGRSLRLSCAASGFTFSHYGMVWVRQPPGKGLEWVALISFDGTTKYYADSVKGRFTISRDNSKNTLYLQMNSLRAEDTAVYFCVGAIAAAAFDLWGRGTLVTVSS VL: EIVMTQSPATLSVSPGERATLSCRASQSVSSDLAWYQQKPGQAPRLLIYSASARATGIPARFTGSGSGTDFTLTISSLQSEDFAVYYCQQYNNWPMYTFGQGTKLEIK
0.302 nM	0.748 h	0.000257 s⁻¹	852000 M⁻¹ s⁻¹	0.416 nM	0.593 h	0.000325 s⁻¹	782000 M⁻¹ s⁻¹	0.0439 nM	4.71 h	4.08e-05 s⁻¹	931000 M⁻¹ s⁻¹	H1H6966N (antibody, human IgG1, V domains shown, Tested with human IgG1 Fc (H1H); also called H2M6966N) VH: QVQLVQSGAEVQKPGASVKVSCKVSGYTLTALSIHWVRQAPGKGLEWMGNFDPGDGETIHAQKFQGRVTMTGDTSTDTAYMELSSLRSEDTAVYYCVGVTFDYWGQGTLVTVSS VL: EIVMTQSPATLSVSPGERATLSCRASQSVASNLAWYQQKPGQAPRLLLYGASTRATGIPARFSGSGSGTEFTLTISSLQSEDFALYYCQHYNNWPLTFGGGTKVEIK
1.35 nM	0.58 h	0.000332 s⁻¹	246000 M⁻¹ s⁻¹	3.08 nM	0.328 h	0.000585 s⁻¹	190000 M⁻¹ s⁻¹	0.11 nM	4.32 h	4.45e-05 s⁻¹	407000 M⁻¹ s⁻¹	H1H6967N (antibody, human IgG1, V domains shown, Tested with human IgG1 Fc (H1H); also called H2M6967N) VH: EVQLVESGGDLVHPGRSLRLSCAASGFPFDEYAMHWVRQVPGKGLEWVSGISWSNNNIGYADSVKGRFTISRDNAKNSLYLQMNSLRPEDTAFYYCAKSGIFDSWGQGTLVTVSS VL: EIVMTQSPATLSVSPGERATLSCRASQSVSRDLAWYQQKPGQAPRLLIHGASTRATGIPARFSGSGSGAEFTLIISSLQSEDFAVYYCQQYNNWPLTFGGGTKVEIK
1.59 nM	0.223 h	0.000864 s⁻¹	544000 M⁻¹ s⁻¹	1.75 nM	0.237 h	0.000814 s⁻¹	466000 M⁻¹ s⁻¹	0.0906 nM	1.91 h	0.000101 s⁻¹	1.12e+06 M⁻¹ s⁻¹	H1H6976N (antibody, human IgG1, V domains shown, Tested with human IgG1 Fc (H1H); also called H2M6976N) VH: EVQLLESGGGFVQPGGSLRLSCAASGFTFSSYAMSWVRQAPGKGLEWVSIISSNGRYTYYADSVKGRFTISRDNSKNTLYLQMNSLRAEDTAVYYCATVTGDWFDPWGQGTLVTVSS VL: DIQLTQSPSFLSASVGDRVTITCWASQDIDISLAWYQQKPGKAPKLLIYAASTLQSGVPSKFSGSGSGTDFTLTISSLQPEDFSTYYCQQLNSYPITFGQGTRLDIK
1.14 nM	0.233 h	0.000818 s⁻¹	715000 M⁻¹ s⁻¹	1.77 nM	0.217 h	0.000875 s⁻¹	495000 M⁻¹ s⁻¹	0.112 nM	2.15 h	8.94e-05 s⁻¹	798000 M⁻¹ s⁻¹	H1H6774P (antibody, human IgG1, V domains shown, Human IgG1 Fc (H1H)) VH: EVQLVESGGGLAQPGGSLRLSCVASGFTFSTYWMSWVRQAPGKGLDWVGNIKQDGSEQNYVDSVRGRFTISRDNAKNSLFLQMNSLRAEDTGVYYCATLLTKGDYWGQGTLVTVSS VL: DIQMTQSPSSLSASVGDSVTITCRASQDISNYLDWFQQKPGKAPKSLIYAASILQGGVPSRFSGSGYGTDFTLTISSLQPEDFATYYCRQYKTYPFTFGPGTKVDIK
0.685 nM	0.783 h	0.000247 s⁻¹	360000 M⁻¹ s⁻¹	1.05 nM	0.683 h	0.000279 s⁻¹	266000 M⁻¹ s⁻¹	0.225 nM	2.7 h	7.13e-05 s⁻¹	317000 M⁻¹ s⁻¹	H1H6782P (antibody, human IgG1, V domains shown, Human IgG1 Fc (H1H)) VH: EVQLVESGGGLVQPGRSLRLSCAASGFTFDDYAMHWVRQAPGKGLEWVSGIIWNSGHIGYGDSVKGRFTISRDNAKKSLYLQMNSLRAEDTALYYCARDSGRYQSYFDYWGQGTLVTVSS VL: DIQMTQSPSTLSASVGDRVTITCRASHIISSWLAWYQQKPGKAPKVLIFKASSLESGVPSRFSGSGSGTEFTLTISSLQPDDFATYYCQQYNTYSRTFGQGTKVEIK
1.43 nM	0.467 h	0.000413 s⁻¹	288000 M⁻¹ s⁻¹	1.81 nM	0.567 h	0.000341 s⁻¹	189000 M⁻¹ s⁻¹	0.332 nM	2.2 h	8.77e-05 s⁻¹	264000 M⁻¹ s⁻¹	H1H6783P (antibody, human IgG1, V domains shown, Human IgG1 Fc (H1H)) VH: QVQLQQSGPGLVKPSQTLSLTCAISGDSVSSNTFAWNWIRQSPSRGLEWLGRTYYRSKWYIDYAESVKSRITITPDTSKNQFSLQLNSVTPEDTALYYCAGGYTYAPRGAFDIWGQGTMVTVSS VL: not shown
1.41 nM	0.233 h	0.000799 s⁻¹	565000 M⁻¹ s⁻¹	2.04 nM	0.25 h	0.000793 s⁻¹	389000 M⁻¹ s⁻¹	0.192 nM	1.85 h	0.000104 s⁻¹	542000 M⁻¹ s⁻¹	H1H6790P (antibody, human IgG1, V domains shown, Human IgG1 Fc (H1H)) VH: EVQLVESGGGLVQPGGSLRLSCAASGFTFSSYAMTWVRQAPGKGLEWVSAITGSVGNTYYADSVKGRFTISRDNSKNTLYLQMNSLGAEDTAEYYCAKGAGMTTNWYLDLWGRGTLVTVSS VL: DIVMTQSPDSLAVSLGARATINCKSSQSVLYSSNNQNYLTWYQQKPGQPPKLLIKWASTRESGVPDRFSGSGSGTDFTLTISSLQAEDVAVYYCQQYASSPYTFGQGTKLEIK
0.61 nM	1.52 h	0.000127 s⁻¹	208000 M⁻¹ s⁻¹	0.986 nM	1.37 h	0.000141 s⁻¹	143000 M⁻¹ s⁻¹	0.236 nM	3.18 h	6.05e-05 s⁻¹	257000 M⁻¹ s⁻¹	H1H6781P (antibody, human IgG1, V domains shown, Human IgG1 Fc (H1H)) VH: EVQLVESGGDLVQPGESLRLSCTASGFTFNSYEMNWVRQAPGKGLEWVSYISSSGGTKYYVDSVKGRFTISRDNAKKSLYLQMNSLRADDTALYYCARLNGVDVFDIWGQGTMVTVSS VL: DIQMTQSPSSLSASVGDRVTITCRASQDIFNYLAWFQQKPGKVPELLISAASTLQSGVPSRFSGSGSGTYFTLTISSLQPEDIATYYCQRYNSAPLTFGGGTKVEIK
0.567 nM	1.13 h	0.000171 s⁻¹	301000 M⁻¹ s⁻¹	0.738 nM	1.15 h	0.000167 s⁻¹	227000 M⁻¹ s⁻¹	0.231 nM	3.17 h	6.07e-05 s⁻¹	263000 M⁻¹ s⁻¹	H1H6785P (antibody, human IgG1, V domains shown, Human IgG1 Fc (H1H)) VH: EVQLVESGGGLVQPGGSLRLSCAASGFTFSSYEMNWVRQAPGKGLEWISYISSRGGTIYYADSIKGRFTIYRDNARNSLYLQMNSLRAEDTAIYYCARLSGVDIFDIWGQGTMVTVSS VL: DIQMTQSPSSLSASVGDRVTITCRASQGISNYLAWYQQKPGKVPKLLIYFASTLQSGVPSRFSGGGSGTDFTLTISSLQPEDVATYYCQRYNSAPLTFGGGTKVEIK
0.124 nM	1.7 h	0.000113 s⁻¹	907000 M⁻¹ s⁻¹	0.254 nM	1.43 h	0.000134 s⁻¹	527000 M⁻¹ s⁻¹	0.0392 nM	5.65 h	3.41e-05 s⁻¹	869000 M⁻¹ s⁻¹	H1H6765P (antibody, human IgG1, V domains shown, Human IgG1 Fc (H1H)) VH: EVQLVESGGGVVRPGGSLRLSCVGSGFSFDDHGMNWVRQGPGKGLEWVSGFNWNGGSTNYAESVKGRFTISRDNARNSLFLQMNSLRAEDTALYYCVRGRSGWFNDAFDVWGPGTMVTVSS VL: EIVLTQSPGTLSLSPGERATLSCRASQTINSNYLAWYRQKPGQTPRLLIYGTSSRATGIPDRFSGSGSGTDFSLTISRLEPEDFAVFYCQQYAGLPTFGPGTKVDIK
